This sample holds only a part of the variants without activity.
Legend:
biotinyl-Met-oxazolone = assay: self-aminoacylation, catalytic enhancement (BMO) (fold over background); higher = more active; k-Seq, kA / k0A0; sequences stand for … in GGGAAUGGAUCCACAUCUACGAAUUC…UUCACUGCAGACUUGACGAAGCUG
Procedure, shortened: (§1)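 Mutagenized RNA pools (0.43 μM; 21-nt variable region) were treated with 2–1250 μM of each biotinyl-aminoacyl-oxazolone. Conditions were 50 μL HEPES/NaCl/KCl/MgCl2/CaCl2 buffer, 5% acetonitrile, pH 6.9–7.0, room temperature, 90 minutes. Catalytic enhancement, the median kA relative to the uncatalyzed rate, was derived from streptavidin capture, qPCR and Illumina sequencing.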

biotinyl-Phe-oxazolone = assay: self-aminoacylation, catalytic enhancement (BFO) (fold over background); higher = more active; k-Seq, kA / k0A0; sequences stand for … in GGGAAUGGAUCCACAUCUACGAAUUC…UUCACUGCAGACUUGACGAAGCUG
Procedure, shortened: as §1

biotinyl-Val-oxazolone = assay: self-aminoacylation, catalytic enhancement (BVO) (fold over background); higher = more active; k-Seq, kA / k0A0; sequences stand for … in GGGAAUGGAUCCACAUCUACGAAUUC…UUCACUGCAGACUUGACGAAGCUG
Procedure, shortened: as §1

biotinyl-Ile-oxazolone = assay: self-aminoacylation, catalytic enhancement (BIO) (fold over background); higher = more active; k-Seq, kA / k0A0; sequences stand for … in GGGAAUGGAUCCACAUCUACGAAUUC…UUCACUGCAGACUUGACGAAGCUG
Procedure, shortened: as §1

biotinyl-Trp-oxazolone = assay: self-aminoacylation, catalytic enhancement (BWO) (fold over background); higher = more active; k-Seq, kA / k0A0; sequences stand for … in GGGAAUGGAUCCACAUCUACGAAUUC…UUCACUGCAGACUUGACGAAGCUG
Procedure, shortened: as §1

biotinyl-Leu-oxazolone = assay: self-aminoacylation, catalytic enhancement (BLO) (fold over background); higher = more active; k-Seq, kA / k0A0; sequences stand for … in GGGAAUGGAUCCACAUCUACGAAUUC…UUCACUGCAGACUUGACGAAGCUG
Procedure, shortened: as §1

Sequence | self-aminoacylation (biotinyl-Met-oxazolone) | self-aminoacylation (biotinyl-Phe-oxazolone) | self-aminoacylation (biotinyl-Val-oxazolone) | self-aminoacylation (biotinyl-Ile-oxazolone) | self-aminoacylation (biotinyl-Trp-oxazolone) | self-aminoacylation (biotinyl-Leu-oxazolone)
AGGUUUGCUAAUAGUCGCAAG [Fam3.1 aminoacylation ribozyme variant] | 1.75 | 22 | 1.38 | 1.56 | 6.61 | 1.41
AGGUUUGCUAAUAGUCGCAGG [Fam3.1 aminoacylation ribozyme variant] | 2.21 | 4.15 | 1.52 | 1.97 | 1.99 | 1.7
AGGUUUGCUAAUAGUCGCCAG [Fam3.1 aminoacylation ribozyme variant] | 1.51 | 1.14 | 1.35 | 1.39 | 2.22 | 1.52
AGGUUUGCUAAUAGUCGCGAG [Fam3.1 aminoacylation ribozyme variant] | 1.65 | 2.48 | 1.78 | 1.56 | 2.59 | 1.61
AGGUUUGCUAAUAGUCGUAAG [Fam3.1 aminoacylation ribozyme variant] | 1.23 | 29.2 | 1.08 | 1.22 | 7.24 | 1.1
AGGUUUGCUGAUAGUCGCAAG [Fam3.1 aminoacylation ribozyme variant] | 1.53 | 2.52 | 1.2 | 1.49 | 1.83 | 1.83
AGUAACCUGGUCAUCGAGUGA [Fam2.1 aminoacylation ribozyme variant] | 5.06 | 16.8 | 3.25 | 3.32 | 4.62 | 5.02
AGUACCCUGCUCAUCGAGUGA [Fam2.1 aminoacylation ribozyme variant] | 2.06 | 1.88 | 1.28 | 1.2 | 1.88 | 1.77
AGUACCCUGGGCAUCGAGUGA [Fam2.1 aminoacylation ribozyme variant] | 6.28 | 47 | 3.16 | 2.96 | 7.71 | 6.54
AGUACCCUGGUCACCGAGUGA [Fam2.1 aminoacylation ribozyme variant] | 8.83 | 54.5 | 4.11 | 4.52 | 11.1 | 9.52
AGUACCCUGGUCAUAGAGUGA [Fam2.1 aminoacylation ribozyme variant] | 4.15 | 15.4 | 2.48 | 2.33 | 4.67 | 4.1
AGUACCCUGGUCAUCGAGUGG [Fam2.1 aminoacylation ribozyme variant] | 5.15 | 6.94 | 2.65 | 2.26 | 4.19 | 4.23
AGUACCCUGGUCAUCGAGUGU [Fam2.1 aminoacylation ribozyme variant] | 14.2 | 29.9 | 5.27 | 5.14 | 11.7 | 13.6
AGUACCGUGGUCAUCGAGUGA [Fam2.1 aminoacylation ribozyme variant] | 5.19 | 24.1 | 3.39 | 3.61 | 5.99 | 5.87
AGUACCUUGGUCAUCGAGUGA [Fam2.1 aminoacylation ribozyme variant] | 6.27 | 19 | 4.07 | 4.3 | 8.17 | 6.37
AGUAGCCUGGUCAUCGAGUGA [Fam2.1 aminoacylation ribozyme variant] | 7.32 | 37.9 | 4.85 | 4.84 | 8.44 | 7.91
AGUCACCUAGGACAUCGGGUG [Fam2.2 aminoacylation ribozyme variant] | 4.24 | 26.6 | 5.02 | 4.13 | 6.31 | 4.11
AGUCACCUAGGUCAUCGGGUU [Fam2.2 aminoacylation ribozyme variant] | 5.25 | 21.7 | 4.18 | 4.28 | 4.8 | 7.09
AGUCACCUAGGUCUUCGGGUG [Fam2.2 aminoacylation ribozyme variant] | 6.75 | 56.4 | 6.48 | 6.51 | 8.99 | 8.46
AGUCACCUAUGUCAUCGGGUG [Fam2.2 aminoacylation ribozyme variant] | 4.37 | 31.8 | 3.19 | 3.74 | 4.85 | 4.74
AGUCACCUGGGUCAUCGGGUG [Fam2.2 aminoacylation ribozyme variant] | 3.98 | 35.4 | 4.96 | 4.56 | 5.64 | 4.04
AGUCACUUAGGUCAUCGGGUG [Fam2.2 aminoacylation ribozyme variant] | 5.12 | 46.1 | 4.36 | 4.65 | 5.93 | 6.96
AGUCGCCUAGGUCAUCGGGUG [Fam2.2 aminoacylation ribozyme variant] | 6.31 | 49 | 5.42 | 5.29 | 9.01 | 7.99
AUAAACCUAGGUCAUCGGGUG [Fam2.2 aminoacylation ribozyme variant] | 3.29 | 20.4 | 2.43 | 2.57 | 3.73 | 4.39
AUAACCCUGAUCAUCGAGUGA [Fam2.1 aminoacylation ribozyme variant] | 6.16 | 20.9 | 3.27 | 2.79 | 8.47 | 6.46

Reference: the supplement of paper PMC9233669
